According to PMC8722725, “Histone H3 deacetylation promotes host cell viability for efficient infection by Listeria monocytogenes” (PLoS Pathogens, 2021):

Target: T1, mCherry-TDP-43 (UniProt Q13148 1-414)
T1 construct: TDP-43, cloned from the plasmid TDP43 NOTAG1 (Addgene #28206); also called pmCherry TDP-43; source: HeLa, co-transfected, in lysate
Assay: co-IP; RFP-Trap agarose beads on lysate of HeLa cells co-transfected with mCherry-TDP-43 and SIRT2-GFP variants; blot for TDP-43 and GFP
Details: partners not purified

T1 sequence (Q13148 whole entry): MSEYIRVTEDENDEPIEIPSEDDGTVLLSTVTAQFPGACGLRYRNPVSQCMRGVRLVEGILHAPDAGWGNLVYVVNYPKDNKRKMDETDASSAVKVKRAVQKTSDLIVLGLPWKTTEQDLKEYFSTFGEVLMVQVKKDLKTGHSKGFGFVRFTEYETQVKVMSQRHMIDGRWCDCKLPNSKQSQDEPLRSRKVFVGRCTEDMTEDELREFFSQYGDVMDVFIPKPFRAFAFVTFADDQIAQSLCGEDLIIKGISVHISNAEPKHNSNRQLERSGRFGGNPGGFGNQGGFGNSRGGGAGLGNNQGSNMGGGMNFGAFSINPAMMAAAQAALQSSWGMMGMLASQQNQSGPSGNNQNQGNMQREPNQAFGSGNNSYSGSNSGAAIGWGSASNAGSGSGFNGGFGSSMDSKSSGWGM

B1: dephosphomimetic S25A SIRT2-GFP (enzyme, UniProt Q8IXJ6 1-389, looked up)
chain: MAEPDPSHPLETQAGKVQEAQDSDADSEGGAAGGEADMDFLRNLFSQTLSLGSQKERLLDELTLEGVARYMQSERCRRVICLVGAGISTSAGIPDFRSPSTGLYDNLEKYHLPYPEAIFEISYFKKHPEPFFALAKELYPGQFKPTICHYFMRLLKDKGLLLRCYTQNIDTLERIAGLEQEDLVEAHGTFYTSHCVSASCRHEYPLSWMKEKIFSEVTPKCEDCQSLVKPDIVFFGESLPARFFSCMQSDFLKVDLLLVMGTSLQVQPFASLISKAPLSTPRLLINKEKAGQSDPFLGMIMGLGGGMDFDSKKAYRDVAWLGECDQGCLALAELLGWKKELEDLVRREHASIDAQSGAGVPNPSTSASPKKSPPPAKDEARTTEREKPQ
notes: Sirtuin 2 (SIRT2) with the dephosphomimetic change S25A; also called S25A dephosphomimetic; source: HeLa, co-transfected, in lysate
- fold increase in co-precipitation relative to the WT variant: ~2.5 fold
